Source: IntAct's records for PubMed 26694203

B1: Mesoderm posterior protein 1 (Homo sapiens), Q9BRJ9 (parent)
chain: MAQPLCPPLSESWMLSAAWGPTRRPPPSDKDCGRSLVSSPDSWGSTPADSPVASPARPGTLRDPRAPSVGRRGARSSRLGSGQRQSASEREKLRMRTLARALHELRRFLPPSVAPAGQSLTKIETLRLAIRYIGHLSAVLGLSEESLQRRCRQRGDAGSPRGCPLCPDDCPAQMQTRTQAEGQGQGRGLGLVSAVRAGASWGSPPACPGARAAPEPRDPPALFAEAACPEGQAMEPSPPSPLLPGDVLALLETWMPLSPLEWLPEEPK

Variants of: B1
Details: with tfe2_human TCF3, P15923
Chain of tfe2_human TCF3, P15923 (P15923 whole entry): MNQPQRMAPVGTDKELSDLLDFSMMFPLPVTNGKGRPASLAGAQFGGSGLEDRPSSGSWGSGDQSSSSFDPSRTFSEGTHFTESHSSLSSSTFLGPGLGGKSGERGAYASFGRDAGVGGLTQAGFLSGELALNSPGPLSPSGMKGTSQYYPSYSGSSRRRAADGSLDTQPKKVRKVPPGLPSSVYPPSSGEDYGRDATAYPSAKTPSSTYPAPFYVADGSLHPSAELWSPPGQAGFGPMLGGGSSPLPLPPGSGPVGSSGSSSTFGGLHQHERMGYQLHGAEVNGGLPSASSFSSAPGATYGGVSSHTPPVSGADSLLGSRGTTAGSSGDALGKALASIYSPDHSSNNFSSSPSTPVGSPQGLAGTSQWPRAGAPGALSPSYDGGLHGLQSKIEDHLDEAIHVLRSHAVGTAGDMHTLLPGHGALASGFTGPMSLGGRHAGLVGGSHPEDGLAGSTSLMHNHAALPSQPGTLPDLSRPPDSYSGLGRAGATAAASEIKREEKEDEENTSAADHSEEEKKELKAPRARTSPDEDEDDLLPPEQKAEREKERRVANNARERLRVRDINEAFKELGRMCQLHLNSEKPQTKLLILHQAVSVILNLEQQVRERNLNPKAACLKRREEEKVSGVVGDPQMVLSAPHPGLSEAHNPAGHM

Row | effect of a mutation on the interaction | Variant
1 | decreasing interaction strength | MAQPLCPPLSESWMLSAAWGPTRRPPPSDKDCGRSLVSSPDSWGSTPADSPVASPARPGTLRDPRAPSVGRRGARSSRLGSGQRQSASEREKLRMRTLARALHELRRFLPPSVAPAGQSLTKIETLRLAIRYIGHLSAVLGLSEESLQRRCRQRGDAGSPRGCPLCPGDCPAQMQTRTQAEGQGQGRGLGLVSAVRAGASWGSPPACPGARAAPEPRDPPALFAEAACPEGQAMEPSPPSPLLPGDVLALLETWMPLSPLEWLPEEPK [D168G]
2 | decreasing interaction strength | MAQPLCPPLSESWMLSAAWGPTRRPPPSDKDCGRSLVSSPDSWGSTPADSPVASPARPGTLRDPRAPSVGRRGARSSRLGSGQRQSASEREKLRMRTLARALHELRRFLPPSVAPAGQSPTKIETLRLAIRYIGHLSAVLGLSEESLQRRCRQRGDAGSPRGCPLCPDDCPAQMQTRTQAEGQGQGRGLGLVSAVRAGASWGSPPACPGARAAPEPRDPPALFAEAACPEGQAMEPSPPSPLLPGDVLALLETWMPLSPLEWLPEEPK [L120P]
3 | with no effect | MAQPLCPPLSESWMLSAAWGPTRRPPPSDKDCGRSLVSSPDSWGSTPADSPVASPARPGTLRDPRAPSVGRRGARSSRLGSGQRQSASEREKLRMRTLARALHELRRFLPPSVAPAGQSLTKIETLRLAIRYIGHLSAVLGLSEESLQRRCRQRGDAGSPRGCPLCPDDCPAQMQTRTQAEGQGQGRGLGLVSAVRAGASWGSPPACPGARAAPEPRDPPALFAEAACPEGQAMEPSPPSPLLPGDVLALLETWMPLSPLEWLPEEPN [K268N]
4 | with no effect | MAQPLCPPLSESWMLSAAWGPTRRPPPSDKDCGRSLVSSPDSWGSTPADSPVASPARPGTLRDPRAPSVDRRGARSSRLGSGQRQSASEREKLRMRTLARALHELRRFLPPSVAPAGQSLTKIETLRLAIRYIGHLSAVLGLSEESLQRRCRQRGDAGSPRGCPLCPDDCPAQMQTRTQAEGQGQGRGLGLVSAVRAGASWGSPPACPGARAAPEPRDPPALFAEAACPEGQAMEPSPPSPLLPGDVLALLETWMPLSPLEWLPEEPK [G70D]
5 | decreasing interaction strength | MAQPLCPPLSESWMLSAAWGPTRRPPPSDKDCGRSLVSSPDSWGSTPADSPVASPARPGTLRDPRAPSVGRRGARSSRLGSGQRQSASEREKLRMRTLARALHKLRRFLPPSVAPAGQSLTKIETLRLAIRYIGHLSAVLGLSEESLQRRCRQRGDAGSPRGCPLCPDDCPAQMQTRTQAEGQGQGRGLGLVSAVRAGASWGSPPACPGARAAPEPRDPPALFAEAACPEGQAMEPSPPSPLLPGDVLALLETWMPLSPLEWLPEEPK [E104K]
